Source: patent publication US20180086849A1 (Hoffmann-La Roche, published 2018)

Biological target: human MCSP (Melanoma-associated Chondroitin Sulfate Proteoglycan) on cells (human, UniProt Q6UVK1 30-2322)
Test: cell-based or functional assay

Sequence of human MCSP (Melanoma-associated Chondroitin Sulfate Proteoglycan) on cells (Q6UVK1 30-2322): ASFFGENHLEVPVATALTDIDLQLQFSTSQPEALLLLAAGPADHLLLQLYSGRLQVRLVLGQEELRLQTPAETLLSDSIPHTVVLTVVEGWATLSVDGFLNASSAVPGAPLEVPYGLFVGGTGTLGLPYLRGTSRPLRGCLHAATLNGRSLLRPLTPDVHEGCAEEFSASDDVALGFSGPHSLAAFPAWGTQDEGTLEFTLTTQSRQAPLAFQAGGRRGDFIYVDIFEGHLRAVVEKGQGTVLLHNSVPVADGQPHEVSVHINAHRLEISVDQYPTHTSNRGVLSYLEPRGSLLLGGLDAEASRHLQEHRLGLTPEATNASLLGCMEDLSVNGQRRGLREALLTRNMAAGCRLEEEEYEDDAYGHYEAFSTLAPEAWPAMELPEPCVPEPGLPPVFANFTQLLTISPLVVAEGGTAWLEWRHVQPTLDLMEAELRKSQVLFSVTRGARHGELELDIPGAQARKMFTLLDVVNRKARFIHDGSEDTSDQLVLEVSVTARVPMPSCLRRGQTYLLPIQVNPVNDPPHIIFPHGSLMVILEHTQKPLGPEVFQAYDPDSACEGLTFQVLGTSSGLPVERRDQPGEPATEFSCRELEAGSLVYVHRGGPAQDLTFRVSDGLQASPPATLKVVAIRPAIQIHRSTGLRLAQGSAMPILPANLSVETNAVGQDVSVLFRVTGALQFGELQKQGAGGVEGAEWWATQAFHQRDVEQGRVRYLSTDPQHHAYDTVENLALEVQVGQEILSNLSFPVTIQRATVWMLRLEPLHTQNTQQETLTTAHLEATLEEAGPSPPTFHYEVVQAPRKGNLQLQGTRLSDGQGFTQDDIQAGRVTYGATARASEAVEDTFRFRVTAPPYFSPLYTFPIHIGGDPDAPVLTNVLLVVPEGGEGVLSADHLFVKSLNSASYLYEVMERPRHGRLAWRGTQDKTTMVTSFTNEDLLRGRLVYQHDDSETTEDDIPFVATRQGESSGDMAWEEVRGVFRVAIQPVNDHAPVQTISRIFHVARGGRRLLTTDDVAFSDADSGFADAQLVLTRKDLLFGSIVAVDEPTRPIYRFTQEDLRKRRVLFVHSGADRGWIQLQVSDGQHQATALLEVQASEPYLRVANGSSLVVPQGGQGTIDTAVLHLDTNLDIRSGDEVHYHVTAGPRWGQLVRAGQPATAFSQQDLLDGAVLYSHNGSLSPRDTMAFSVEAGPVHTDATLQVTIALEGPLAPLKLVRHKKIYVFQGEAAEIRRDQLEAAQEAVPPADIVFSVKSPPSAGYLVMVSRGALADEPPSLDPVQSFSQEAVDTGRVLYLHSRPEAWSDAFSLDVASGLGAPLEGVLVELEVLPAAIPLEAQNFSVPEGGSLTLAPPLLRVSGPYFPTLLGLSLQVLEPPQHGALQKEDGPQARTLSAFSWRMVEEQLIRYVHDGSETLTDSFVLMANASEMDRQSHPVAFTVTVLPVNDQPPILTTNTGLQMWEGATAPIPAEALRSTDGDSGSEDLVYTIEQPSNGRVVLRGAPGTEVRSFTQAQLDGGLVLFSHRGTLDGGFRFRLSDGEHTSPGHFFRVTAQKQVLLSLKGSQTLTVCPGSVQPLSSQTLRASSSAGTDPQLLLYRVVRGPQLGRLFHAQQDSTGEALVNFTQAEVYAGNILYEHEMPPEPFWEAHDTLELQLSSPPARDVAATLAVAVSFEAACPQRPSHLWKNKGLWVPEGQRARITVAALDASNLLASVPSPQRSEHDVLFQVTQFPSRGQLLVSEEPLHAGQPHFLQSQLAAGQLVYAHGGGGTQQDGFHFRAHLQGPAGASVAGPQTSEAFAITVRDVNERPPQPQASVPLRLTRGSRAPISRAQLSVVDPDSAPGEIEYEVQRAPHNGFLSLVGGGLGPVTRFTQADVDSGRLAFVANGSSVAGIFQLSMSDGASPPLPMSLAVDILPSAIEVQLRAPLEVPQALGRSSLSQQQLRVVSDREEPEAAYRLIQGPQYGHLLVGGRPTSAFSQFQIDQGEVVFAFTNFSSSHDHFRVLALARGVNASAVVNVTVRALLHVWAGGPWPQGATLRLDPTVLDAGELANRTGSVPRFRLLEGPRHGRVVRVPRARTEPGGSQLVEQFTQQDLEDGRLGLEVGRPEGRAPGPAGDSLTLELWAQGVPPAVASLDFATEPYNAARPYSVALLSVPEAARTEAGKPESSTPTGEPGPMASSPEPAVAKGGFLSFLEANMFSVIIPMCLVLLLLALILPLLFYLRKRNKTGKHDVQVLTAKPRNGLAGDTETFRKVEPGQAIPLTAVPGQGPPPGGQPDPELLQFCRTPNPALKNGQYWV

B1: 1+1 CrossMab; CL/CH1 exchange (LC007/V9), anti-MCSP/anti-huCD3 (bispecific antibody, human IgG1, kappa, L234A L235A)
chain 1: DIVLTQSPSSLSASLGDRVTISCSASQGIRNYLNWYQQRPDGTVKLLIYYTSSLHSGVPSRFSGSGSGTDYSLTISNLEPEDIATYYCQQYSKLPWTFGGGTKLEIKRTVAAPSVFIFPPSDEQLKSGTASVVCLLNNFYPREAKVQWKVDNALQSGNSQESVTEQDSKDSTYSLSSTLTLSKADYEKHKVYACEVTHQGLSSPVTKSFNRGEC
chain 2: EVQLQESGPGLVKPSQSLSLTCSVTGYSITSGYYWNWIRQFPGNKLEWMGYITYDGSNNYNPSLKNRISITRDTSKNQFFLKLNSVTTEDTATYYCADFDYWGQGTTLTVSSASTKGPSVFPLAPSSKSTSGGTAALGCLVKDYFPEPVTVSWNSGALTSGVHTFPAVLQSSGLYSLSSVVTVPSSSLGTQTYICNVNHKPSNTKVDKKVEPKSCDKTHTCPPCPAPEAAGGPSVFLFPPKPKDTLMISRTPEVTCVVVDVSHEDPEVKFNWYVDGVEVHNAKTKPREEQYNSTYRVVSVLTVLHQDWLNGKEYKCKVSNKALGAPIEKTISKAKGQPREPQVCTLPPSRDELTKNQVSLSCAVKGFYPSDIAVEWESNGQPENNYKTTPPVLDSDGSFFLVSKLTVDKSRWQQGNVFSCSVMHEALHNHYTQKSLSLSPGK
chain 3: DIQMTQSPSSLSASVGDRVTITCRASQDIRNYLNWYQQKPGKAPKLLIYYTSRLESGVPSRFSGSGSGTDYTLTISSLQPEDFATYYCQQGNTLPWTFGQGTKVEIKSSASTKGPSVFPLAPSSKSTSGGTAALGCLVKDYFPEPVTVSWNSGALTSGVHTFPAVLQSSGLYSLSSVVTVPSSSLGTQTYICNVNHKPSNTKVDKKVEPKSC
chain 4: not shown
- EC50 of T cell-mediated killing (LDH release) of MV-3 cells, human PBMCs, 21 h: 0.0884 nM
- EC50 of T cell-mediated killing (LDH release) of WM266-4 cells, human PBMCs, 21 h: 0.0539 nM

B2: 2+1 IgG Crossfab; CL/CH1 exchange (M4-3 ML2/V9), anti-MCSP/anti-huCD3 (bispecific antibody)
chain 1: B1 chain 3
chain 2: not shown
chain 3: QVQLQESGPGLVKPSQTLSLTCTVSGGSITSGYYWNWIRQHPGKGLEWIGYITYDGSNNYNPSLKSRVTISRDTSKNQFSLKLSSVTAADTAVYYCADFDYWGQGTLVTVSSASTKGPSVFPLAPSSKSTSGGTAALGCLVKDYFPEPVTVSWNSGALTSGVHTFPAVLQSSGLYSLSSVVTVPSSSLGTQTYICNVNHKPSNTKVDKKVEPKSCDKTHTCPPCPAPEAAGGPSVFLFPPKPKDTLMISRTPEVTCVVVDVSHEDPEVKFNWYVDGVEVHNAKTKPREEQYNSTYRVVSVLTVLHQDWLNGKEYKCKVSNKALGAPIEKTISKAKGQPREPQVCTLPPSRDELTKNQVSLSCAVKGFYPSDIAVEWESNGQPENNYKTTPPVLDSDGSFFLVSKLTVDKSRWQQGNVFSCSVMHEALHNHYTQKSLSLSPGK
chain 4: not shown
- EC50 of T cell-mediated killing (LDH release) of MV-3 cells, human PBMCs, 27 h: ~0.0117 nM
- EC50 of T cell-mediated killing (LDH release) of WM266-4 cells, human PBMCs, 26 h: 0.0129 nM

B3: 2+1 IgG Crossfab; VL/VH exchange (M4-3 ML2/V9), anti-MCSP/anti-huCD3 (bispecific antibody)
chain 1: EVQLVESGGGLVQPGGSLRLSCAASGYSFTGYTMNWVRQAPGKGLEWVALINPYKGVSTYNQKFKDRFTISVDKSKNTAYLQMNSLRAEDTAVYYCARSGYYGDSDWYFDVWGQGTLVTVSSASVAAPSVFIFPPSDEQLKSGTASVVCLLNNFYPREAKVQWKVDNALQSGNSQESVTEQDSKDSTYSLSSTLTLSKADYEKHKVYACEVTHQGLSSPVTKSFNRGEC
chain 2: not shown
chain 3: not shown
chain 4: B2 chain 3
- EC50 of T cell-mediated killing (LDH release) of MV-3 cells, human PBMCs, 27 h: ~0.0822 nM
- EC50 of T cell-mediated killing (LDH release) of WM266-4 cells, human PBMCs, 26 h: 0.0168 nM
